Results: the supplement of paper PMC11316812
± gives the standard deviation of the averaged measurements.

Columns and labels:
[1] = tested on: MCF7; experiment: percentage of EdU-negative (G0-arrested) nuclei per well, 72 h; higher = more G0 arrest; details: reference: sequence is the full UniProt precursor, the tested protein was the secreted form or ectodomain
[2] = tested on: hTERT-HMEC; experiment: as above; details: reference: sequence is the full UniProt precursor, the tested protein was the secreted form or ectodomain
[3] = protein concentration 0.01477 µM
[4] = protein concentration 0.03125 µM
[5] = protein concentration 0.1477 µM
[6] = protein concentration 0.3125 µM
[7] = protein concentration 0.0225 µM
[8] = protein concentration 0.01034 µM
[9] = protein concentration 0.1034 µM
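Also: secreted proteins added to cultured cells, EdU pulse at the end, nuclei found by Hoechst imaging, EdU status from nuclear versus surrounding ring intensity ratio, PBS as neutral control.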

Sequence | percentage of EdU-negative [1, 7] [%] | percentage of EdU-negative ([1]; protein concentration 0.225 µM) [%] | percentage of EdU-negative [2, 7] [%] | percentage of EdU-negative ([2]; protein concentration 0.225 µM) [%] | also measured
MAFSGSQAPYLSPAVPFSGTIQGGLQDGLQITVNGTVLSSSGTRFAVNFQTGFSGNDIAFHFNPRFEDGGYVVCNTRQNGSWGPEERKTHMPFQKGMPFDLCFLVQSSDFKVMVNGILFVQYFHRVPFHRVDTISVNGSVQLSYISFQNPRTVPVQPAFSTVPFSQPVCFPPRPRGRRQKPPGVWPANPAPITQTVIHTVQSAPGQMFSTPAIPPMMYPHPAYPMPFITTILGGLYPSKSILLSGTVLPSAQRFHINLCSGNHIAFHLNPRFDENAVVRNTQIDNSWGSEERSLPRKMPFVRGQSFSVWILCEAHCLKVAVDGQHLFEYYHRLRNLPTINRLEVGGDIQLTHVQT |  |  |  |  | percentage of EdU-negative [1, 3]: 30.2 ± 1.1%; percentage of EdU-negative [1, 4]: 26.3 ± 2.5%; percentage of EdU-negative [1, 5]: 39.3 ± 0.83%; percentage of EdU-negative [1, 6]: 26.3 ± 0.4%; percentage of EdU-negative [2, 3]: 5.5 ± 0.22%; percentage of EdU-negative [2, 4]: 4.97 ± 0.35%; percentage of EdU-negative [2, 5]: 9.26 ± 0.15%; percentage of EdU-negative [2, 6]: 4.66 ± 0.35%
MKLKLKNVFLAYFLVSIAGLLYALVQLGQPCDCLPPLRAAAEQLRQKDLRISQLQAELRRPPPAPAQPPEPEALPTIYVVTPTYARLVQKAELVRLSQTLSLVPRLHWLLVEDAEGPTPLVSGLLAASGLLFTHLVVLTPKAQRLREGEPGWVHPRGVEQRNKALDWLRGRGGAVGGEKDPPPPGTQGVVYFADDDNTYSRELFEEMRWTRGVSVWPVGLVGGLRFEGPQVQDGRVVGFHTAWEPSRPFPVDMAGFAVALPLLLDKPNAQFDSTAPRGHLESSLLSHLVDPKDLEPRAANCTRVLVWHTRTEKPKMKQEEQLQRQGRGSDPAIEV | 24 ± 0.88 | 27.1 ± 1.6 | 6.2 ± 0.23 | 9.73 ± 0.47 | 
MGIELLCLFFLFLGRNDHVQGGCALGGAETCEDCLLIGPQCAWCAQENFTHPSGVGERCDTPANLLAKGCQLNFIENPVSQVEILKNKPLSVGRQKNSSDIVQIAPQSLILKLRPGGAQTLQVHVRQTEDYPVDLYYLMDLSASMDDDLNTIKELGSRLSKEMSKLTSNFRLGFGSFVEKPVSPFVKTTPEEIANPCSSIPYFCLPTFGFKHILPLTNDAERFNEIVKNQKISANIDTPEGGFDAIMQAAVCKEKIGWRNDSLHLLVFVSDADSHFGMDSKLAGIVIPNDGLCHLDSKNEYSMSTVLEYPTIGQLIDKLVQNNVLLIFAVTQEQVHLYENYAKLIPGATVGLLQKDSGNILQLIISAYEELRSEVELEVLGDTEGLNLSFTAICNNGTLFQHQKKCSHMKVGDTASFSVTVNIPHCERRSRHIIIKPVGLGDALELLVSPECNCDCQKEVEVNSSKCHHGNGSFQCGVCACHPGHMGPRCECGEDMLSTDSCKEAPDHPSCSGRGDCYCGQCICHLSPYGNIYGPYCQCDNFSCVRHKGLLCGGNGDCDCGECVCRSGWTGEYCNCTTSTDSCVSEDGVLCSGRGDCVCGKCVCTNPGASGPTCERCPTCGDPCNSKRSCIECHLSAAGQAREECVDKCKLAGATISEEEDFSKDGSVSCSLQGENECLITFLITTDNEGKTIIHSINEKDCPKPPNIPMIMLGVSLAILLIGVVLLCIWKLLVSFHDRKEVAKFEAERSKAKWQTGTNPLYRGSTSTFKNVTYKHREKQKVDLSTDC | 23.6 ± 0.48 | 28 ± 1.7 | 5.434 ± 0.051 | 6.34 ± 1.4 | 
MKGWGWLALLLGALLGTAWARRSQDLHCGACRALVDELEWEIAQVDPKKTIQMGSFRINPDGSQSVVEVPYARSEAHLTELLEEICDRMKEYGEQIDPSTHRKNYVRVVGRNGESSELDLQGIRIDSDISGTLKFACESIVEEYEDELIEFFSREADNVKDKLCSKRTDLCDHALHISHDEL [Q9Y2B0] | 23.4 ± 3.1 | 25.3 ± 1.3 | 5.14 ± 0.16 | 6.74 ± 0.6 | 
MERPLCSHLCSCLAMLALLSPLSLAQYDSWPHYPEYFQQPAPEYHQPQAPANVAKIQLRLAGQKRKHSEGRVEVYYDGQWGTVCDDDFSIHAAHVVCRELGYVEAKSWTASSSYGKGEGPIWLDNLHCTGNEATLAACTSNGWGVTDCKHTEDVGVVCSDKRIPGFKFDNSLINQIENLNIQVEDIRIRAILSTYRKRTPVMEGYVEVKEGKTWKQICDKHWTAKNSRVVCGMFGFPGERTYNTKVYKMFASRRKQRYWPFSMDCTGTEAHISSCKLGPQVSLDPMKNVTCENGLPAVVSCVPGQVFSPDGPSRFRKAYKPEQPLVRLRGGAYIGEGRVEVLKNGEWGTVCDDKWDLVSASVVCRELGFGSAKEAVTGSRLGQGIGPIHLNEIQCTGNEKSIIDCKFNAESQGCNHEEDAGVRCNTPAMGLQKKLRLNGGRNPYEGRVEVLVERNGSLVWGMVCGQNWGIVEAMVVCRQLGLGFASNAFQETWYWHGDVNSNKVVMSGVKCSGTELSLAHCRHDGEDVACPQGGVQYGAGVACSETAPDLVLNAEMVQQTTYLEDRPMFMLQCAMEENCLSASAAQTDPTTGYRRLLRFSSQIHNNGQSDFRPKNGRHAWIWHDCHRHYHSMEVFTHYDLLNLNGTKVAEGHKASFCLEDTECEGDIQKNYECANFGDQGITMGCWDMYRHDIDCQWVDITDVPPGDYLFQVVINPNFEVAESDYSNNIMKCRSRYDGHRIWMYNCHIGGSFSEETEKKFEHFSGLLNNQLSPQ [Q9Y4K0] |  |  |  |  | percentage of EdU-negative [1, 8]: 25.4 ± 0.28%; percentage of EdU-negative [1, 9]: 27.7 ± 0.84%; percentage of EdU-negative [2, 8]: 4.4 ± 0.43%; percentage of EdU-negative [2, 9]: 9.13 ± 1.5%
